Like-named read-outs stand apart in the source and are kept apart here.
Columns and labels:
[1] = biological target: Arabidopsis thaliana CDC48A (Arabidopsis thaliana) (UniProt P54609); assay: cross-linking + SEC-MALS
[2] = biological target: Arabidopsis thaliana CDC48A (Arabidopsis thaliana) (UniProt P54609); assay: ITC
[3] = biological target: Arabidopsis thaliana CDC48A (Arabidopsis thaliana) (UniProt P54609); assay: ITC; remark: listed apart in the source
[4] = biological target: Arabidopsis thaliana NPL4 (Arabidopsis thaliana) (UniProt O82264); assay: MST
Sequence of Arabidopsis thaliana NPL4 (Arabidopsis thaliana) (O82264 whole entry): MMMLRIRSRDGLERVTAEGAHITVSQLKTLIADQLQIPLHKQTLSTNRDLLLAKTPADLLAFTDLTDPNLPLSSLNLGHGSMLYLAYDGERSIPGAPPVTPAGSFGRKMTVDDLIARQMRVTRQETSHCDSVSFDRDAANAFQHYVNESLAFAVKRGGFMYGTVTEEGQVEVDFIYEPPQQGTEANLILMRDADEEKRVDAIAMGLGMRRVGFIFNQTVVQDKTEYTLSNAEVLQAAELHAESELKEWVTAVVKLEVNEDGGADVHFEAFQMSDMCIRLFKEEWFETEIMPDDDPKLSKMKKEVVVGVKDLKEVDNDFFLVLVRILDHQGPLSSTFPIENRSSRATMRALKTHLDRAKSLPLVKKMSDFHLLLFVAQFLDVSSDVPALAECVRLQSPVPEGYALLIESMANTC

[5] = biological target: Arabidopsis thaliana NPL4 (Arabidopsis thaliana) (UniProt O82264); assay: MST; remark: listed apart in the source

Sequence of Arabidopsis thaliana CDC48A (Arabidopsis thaliana) (P54609 whole entry): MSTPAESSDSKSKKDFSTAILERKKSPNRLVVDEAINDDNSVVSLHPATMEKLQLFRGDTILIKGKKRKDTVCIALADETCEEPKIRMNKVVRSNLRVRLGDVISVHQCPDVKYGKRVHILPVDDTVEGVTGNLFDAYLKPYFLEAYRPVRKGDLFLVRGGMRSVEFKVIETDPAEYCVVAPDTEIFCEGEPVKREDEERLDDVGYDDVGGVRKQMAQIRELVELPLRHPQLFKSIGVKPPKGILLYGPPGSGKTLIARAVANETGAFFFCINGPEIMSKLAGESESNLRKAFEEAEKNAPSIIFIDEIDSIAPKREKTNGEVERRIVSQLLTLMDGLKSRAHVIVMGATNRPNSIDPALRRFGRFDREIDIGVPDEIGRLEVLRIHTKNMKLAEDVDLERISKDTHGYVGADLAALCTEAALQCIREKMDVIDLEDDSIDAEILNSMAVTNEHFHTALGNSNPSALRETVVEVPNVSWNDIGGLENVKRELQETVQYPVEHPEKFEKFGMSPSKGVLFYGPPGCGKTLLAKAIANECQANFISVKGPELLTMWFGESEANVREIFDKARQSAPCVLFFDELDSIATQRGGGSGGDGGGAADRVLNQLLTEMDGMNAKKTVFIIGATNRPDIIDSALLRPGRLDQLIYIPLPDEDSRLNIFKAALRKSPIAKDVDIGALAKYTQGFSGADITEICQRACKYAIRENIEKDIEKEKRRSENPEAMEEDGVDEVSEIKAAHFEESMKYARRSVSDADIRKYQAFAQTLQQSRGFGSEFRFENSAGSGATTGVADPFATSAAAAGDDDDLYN

Arabidopsis thaliana NPL4 (from UniProt O82264 1-413) (natural protein)
stoichiometry N (copy per six AtCDC48A) [1]: 1
Kd [2]: 2.6 µM
stoichiometry N (AtNPL4 per AtCDC48A hexamer) [2]: 1
Kd [3]: 7.1 µM

Arabidopsis thaliana UFD1A (natural protein)
Kd [4]: > 200 µM
Kd [5]: > 200 µM

Arabidopsis thaliana UFD1B (from UniProt Q9SJV0 1-340) (natural protein)
stoichiometry N (copy per six AtCDC48A) [1]: 1
Kd [2]: 4.4 µM
stoichiometry N (cofactor per AtCDC48A hexamer) [2]: 1

Reference: paper doi:10.1101/2025.03.28.645892
